Experimental findings from IntAct's records for PubMed 20080707 are described below.

Sequences and labels used below:
B1: Protein-glutamine gamma-glutamyltransferase 2 (Homo sapiens), P21980 (parent)
chain: MAEELVLERCDLELETNGRDHHTADLCREKLVVRRGQPFWLTLHFEGRNYEASVDSLTFSVVTGPAPSQEAGTKARFPLRDAVEEGDWTATVVDQQDCTLSLQLTTPANAPIGLYRLSLEASTGYQGSSFVLGHFILLFNAWCPADAVYLDSEEERQEYVLTQQGFIYQGSAKFIKNIPWNFGQFEDGILDICLILLDVNPKFLKNAGRDCSRRSSPVYVGRVVSGMVNCNDDQGVLLGRWDNNYGDGVSPMSWIGSVDILRRWKNHGCQRVKYGQCWVFAAVACTVLRCLGIPTRVVTNYNSAHDQNSNLLIEYFRNEFGEIQGDKSEMIWNFHCWVESWMTRPDLQPGYEGWQALDPTPQEKSEGTYCCGPVPVRAIKEGDLSTKYDAPFVFAEVNADVVDWIQQDDGSVHKSINRSLIVGLKISTKSVGRDEREDITHTYKYPEGSSEEREAFTRANHLNKLAEKEETGMAMRIRVGQSMNMGSDFDVFAHITNNTAEEYVCRLLLCARTVSYNGILGPECGTKYLLNLNLEPFSEKSVPLCILYEKYRDCLTESNLIKVRALLVEPVINSYLLAERDLYLENPEIKIRILGEPKQKRKLVAEVSLQNPLPVALEGCTFTVEGAGLTEEQKTVEIPDPVEAGEEVKVRMDLLPLHMGLHKLVVNFESDKLKAVKGFRNVIIGPA

The test covers variants of B1. As to conditions: with KRT19, P08727.
Sequence of KRT19, P08727 (P08727 whole entry): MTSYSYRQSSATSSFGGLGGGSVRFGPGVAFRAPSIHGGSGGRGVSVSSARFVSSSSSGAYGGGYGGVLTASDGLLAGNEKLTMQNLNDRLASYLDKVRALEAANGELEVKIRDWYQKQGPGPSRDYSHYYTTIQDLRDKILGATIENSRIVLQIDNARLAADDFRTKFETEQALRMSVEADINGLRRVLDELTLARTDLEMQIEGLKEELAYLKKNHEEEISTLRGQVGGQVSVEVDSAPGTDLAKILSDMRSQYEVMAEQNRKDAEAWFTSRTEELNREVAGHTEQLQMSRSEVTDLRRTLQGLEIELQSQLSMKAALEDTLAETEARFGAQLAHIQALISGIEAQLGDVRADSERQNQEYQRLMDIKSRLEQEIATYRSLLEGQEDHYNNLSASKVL
Take C277V: the “effect of a mutation on the interaction” value is on record as “disrupting interaction”.
